Results taken from the supplement of paper PMC10567573.

B1: ZNF649 (parent)
chain: MTKAQESLTLEDVAVDFTWEEWQF
B2: TOR1AIP2 (parent)
chain: AGQEGEDTLRRRLLAPEAGSHPQQ

Variants of: B1
Test: protein stability index of a GFP-peptide fusion (GPS, HEK-293T) (PSI 1-6); higher = more stable
Settings: c terminus: a fixed tail appended
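Note: lentivirally expressed fusions sorted by FACS into six bins by GFP to DsRed ratio, PSI derived from sequencing read proportions per bin multiplied by bin number.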

In order of rising protein stability index:
1. E11Y  1.28
2. E11V  1.43
3. E11F  1.44
4. Q5W  1.49
5. E6Y  1.53
6. E11L  1.56
7. A14Y  1.65
8. S7W  1.72
9. D12A  1.72
10. A14L  1.74
11. E6V  1.75
12. E6A  1.87
13. A14I  1.88
14. E6F  1.89
15. D12V  1.92
16. E6M  1.92
17. E6W  1.95
18. E11H  2
19. M1W  2.07
20. A14F  2.08
21. E11C  2.12
22. D12S  2.13
23. E11W  2.13
24. D12M  2.14
25. E11M  2.14
26. A4W  2.15
27. K3F  2.17
28. D12T  2.2
29. E6H  2.2
30. K3C  2.23
31. L8W  2.23
32. D12N  2.23
33. E11I  2.25
34. Q5Y  2.32
35. T2Y  2.33
36. E6S  2.33
37. T2W  2.36
38. V13W  2.36
39. E11R  2.39
40. E11A  2.39
41. A4C  2.4
42. A14C  2.4
43. T9Y  2.41
44. S7L  2.43
45. E6L  2.43
46. Q5R  2.46
47. A14M  2.46
48. V15F  2.48
49. A4M  2.5
50. S7V  2.5
51. L8F  2.5
52. A4F  2.51
53. A4V  2.52
54. E6C  2.52
55. K3W  2.53
56. V15I  2.53
57. T9W  2.54
58. T9L  2.54
59. S7Y  2.54
60. V13F  2.54
61. T2S  2.55
62. D12G  2.55
63. A4Y  2.56
64. V15L  2.56
65. T2C  2.57
66. V15W  2.59
67. S7H  2.6
68. E11K  2.62
69. K3M  2.64
70. K3Y  2.64
71. T2V  2.64
72. D12C  2.65
73. T2F  2.66
74. D12H  2.68
75. S7M  2.69
76. M1F  2.69
77. E11P  2.69
78. L8Y  2.7
79. D12K  2.7
80. T9I  2.71
81. E6T  2.71
82. T2R  2.72
83. K3I  2.74
84. E6G  2.74
85. T2I  2.75
86. Q5C  2.78
87. E6P  2.78
88. L10I  2.81
89. M1P  2.81
90. S7A  2.82
91. M1C  2.82
92. Q5K  2.83
93. M1I  2.83
94. E11S  2.83
95. K3L  2.84
96. Q5G  2.84
97. D12Q  2.84
98. D12R  2.85
99. E11T  2.86
100. T2H  2.88
101. E6N  2.88
102. E6R  2.88
103. A4I  2.89
104. S7C  2.9
105. Q5M  2.92
106. A14T  2.92
107. A14N  2.92
108. A4G  2.94
109. M1L  2.94
110. E6Q  2.94
111. D12I  2.95
112. M1Y  2.96
113. A4R  2.97
114. Q5L  2.97
115. K3Q  2.98
116. E11G  2.98
117. L10V  3.01
118. S7K  3.01
119. Q5I  3.02
120. Q5A  3.02
121. E6K  3.02
122. A4N  3.04
123. Q5T  3.04
124. Q5P  3.04
125. L8I  3.05
126. D12P  3.05
127. A14S  3.06
128. M1V  3.07
129. T2A  3.09
130. S7I  3.1
131. A4T  3.11
132. K3R  3.12
133. Q5F  3.12
134. A14H  3.12
135. S7P  3.14
136. E6D  3.14
137. A4K  3.15
138. T9M  3.16
139. T9V  3.16
140. V13Y  3.17
141. A4Q  3.18
142. L10W  3.19
143. Q5H  3.2
144. S7F  3.2
145. K3V  3.23
146. D12E  3.23
147. V13L  3.23
148. L10Y  3.24
149. T2G  3.25
150. E11N  3.28
151. M1K  3.29
152. A14W  3.29
153. K3T  3.33
154. K3P  3.33
155. Q5N  3.33
156. M1A  3.33
157. Q5E  3.35
158. T9F  3.35
159. V15S  3.35
160. K3G  3.36
161. Q5V  3.37
162. T9A  3.37
163. V13C  3.37
164. T9K  3.38
165. S7N  3.39
166. Q5D  3.4
167. L8C  3.42
168. T9S  3.43
169. M1G  3.43
170. L10M  3.44
171. A4S  3.45
172. V13R  3.45
173. V13I  3.47
174. A4H  3.48
175. A4D  3.48
176. T9G  3.49
177. D12L  3.49
178. T2D  3.5
179. T9C  3.52
180. V13M  3.54
181. S7R  3.55
182. E11D  3.57
183. T9Q  3.58
184. L8P  3.58
185. T9R  3.59
186. L8V  3.59
187. L10F  3.61
188. A14Q  3.61
189. T2N  3.62
190. L8M  3.62
191. K3D  3.63
192. V13G  3.64
193. K3N  3.65
194. A4E  3.66
195. T2P  3.66
196. S7T  3.67
197. S7Q  3.68
198. K3H  3.7
199. A4L  3.71
200. T9D  3.71
201. V15C  3.71
202. M1H  3.72
203. A4P  3.75
204. S7D  3.75
205. V15M  3.77
206. V15D  3.77
207. T2K  3.77
208. D12F  3.77
209. M1T  3.79
210. L8R  3.79
211. L10A  3.8
212. S7G  3.8
213. T9H  3.81
214. K3S  3.85
215. V15N  3.87
216. L10R  3.88
217. V13H  3.88
218. M1Q  3.89
219. E11Q  3.9
220. V15Y  3.91
221. M1S  3.91
222. V15A  3.92
223. S7E  3.93
224. L8T  3.93
225. T9E  3.94
226. V15E  3.94
227. T2E  3.94
228. V15K  3.95
229. M1D  3.95
230. Q5S  3.96
231. T2L  3.97
232. V13A  3.98
233. A14D  4.04
234. L10T  4.05
235. L10C  4.05
236. L8H  4.05
237. L10S  4.07
238. V15P  4.07
239. V15G  4.07
240. V15T  4.1
241. L10P  4.11
242. L8G  4.11
243. V13T  4.11
244. V13D  4.11
245. A14P  4.12
246. L10Q  4.13
247. L10G  4.14
248. V13P  4.15
249. V15R  4.16
250. V13K  4.16
251. T9P  4.17
252. V13Q  4.18
253. L8A  4.22
254. V13E  4.25
255. T9N  4.28
256. K3E  4.29
257. L10N  4.29
258. L8K  4.31
259. E6I  4.31
260. V15H  4.33
261. D12Y  4.33
262. V13N  4.33
263. L10K  4.34
264. L10E  4.38
265. L8E  4.39
266. L8D  4.41
267. L10H  4.42
268. L8N  4.42
269. V15Q  4.44
270. L8S  4.47
271. M1E  4.48
272. M1N  4.67
273. V13S  4.69
274. L10D  4.91

Variants of: B2
Test: as above
Settings: c terminus: a fixed tail appended

In order of falling protein stability index:
1. P22N  3.24
2. Q23P  3.1
3. Q24M  2.81
4. H21S  2.76
5. Q23D  2.75
6. Q23K  2.74
7. H21Q  2.7
8. Q23V  2.69
9. P22M  2.67
10. P22E  2.66
11. P22D  2.6
12. H21W  2.6
13. P22A  2.58
14. Q24V  2.58
15. P22I  2.56
16. Q23C  2.54
17. Q23R  2.54
18. Q24E  2.52
19. Q24Y  2.46
20. Q23L  2.45
21. P22K  2.44
22. P22G  2.44
23. P22C  2.43
24. Q24P  2.41
25. P22V  2.4
26. Q24S  2.4
27. Q24D  2.38
28. Q24F  2.37
29. Q23A  2.36
30. P22Q  2.34
31. P22F  2.31
32. H21T  2.26
33. Q24N  2.25
34. Q23M  2.24
35. Q24T  2.22
36. Q23E  2.18
37. Q23N  2.17
38. Q24W  2.17
39. Q24I  2.16
40. P22L  2.14
41. H21R  2.14
42. H21V  2.1
43. Q24R  2.05
44. P22R  2.04
45. Q23Y  2.01
46. Q23H  2.01
47. P22W  1.94
48. P22T  1.87
49. Q23S  1.85
50. Q24C  1.85
51. H21Y  1.85
52. P22S  1.81
53. Q23W  1.81
54. Q24L  1.79
55. Q23G  1.78
56. Q23I  1.73
57. Q24H  1.7
58. P22H  1.65
59. Q23T  1.61
60. P22Y  1.52
